This is an account of results in article PMC5278397, “Discovery of a junctional epitope antibody that stabilizes IL-6 and gp80 protein:protein interaction and modulates its downstream signaling” (Scientific Reports, 2017).

One test deals with T1, IL-6 (UniProt P05231 49-212).
T1 construct: interleukin-6 (IL-6); Two in-house constructs are named (IL-6 and IL-6S21); IL-6 bought from R&D Systems was used 'for in vitro experiments'; source: E. coli, produced in house, purified
The test is described as follows: SPR; IL-6 amine-coupled on CM5; gp80 (gp80V4) injected at 50 nM, 30 μl/min, 180 s, dissociation 360 s; 25 °C, HBS-P+; BIAcore 3000; without VHH6. Particulars: both partners purified. Background: Surface plasmon resonance follows binding to a sensor surface in real time, without labels.

The target in test [1] is T2, IL-6–gp80 complex (IL-6 with gp80V4) (Homo sapiens, UniProt P05231;PDB).
T2 construct: interleukin-6 (IL-6), as m2; also called equimolar mixture of IL-6 and gp80
Kind of test: SPR; His-tagged VHH6 or mutants captured from 1:5 diluted supernatants on a nickel charged NTA chip; equimolar mixture of IL-6 and gp80 (50 nM each) injected for 300 s at 10 μl/min, dissociation 300 s; BIAcore 3000; 25 °C, HBS-P+. Particulars: one partner purified.

The next test addresses T3, IL-6 with gp80-hscFc (UniProt P05231;P08887).
T3 construct: interleukin-6 (IL-6), as m2; gp80 of gp80-hscFc, as m4; also called IL-6–gp80 complex (ELISA); source: one partner coated on the plate, the other added together with VHH6
Kind of test: ELISA; IL-6 coated overnight and VHH6 added with gp80-hscFc, or gp80-hscFc coated overnight and VHH6 added with IL-6. A general note: An ELISA detects its analyte on a solid surface through an enzyme-linked reagent.

Test [2] concerns the target T4, IL-6–gp80 complex (gp80 construct not stated) (Homo sapiens, UniProt P05231;P08887).
T4 construct: interleukin-6 (IL-6), as m2; gp80, as m5; also called dimeric complex IL-6–gp80; source: mixture of IL-6 and gp80
The test is described as follows: BLI; VHH6 captured through its His-tag on Ni-NTA tips; FusionIL-6, IL-6, gp80 and IL-6+gp80 in solution; Octet 384 Red. Particulars: both partners purified.

A further test has as its target T5, gp80 (Homo sapiens, UniProt P08887).
T5 construct: IL-6 receptor gp80 (CD126), soluble; also called CD126; IL-6 specific receptor
The test is described as above. Particulars: both partners purified.

The next test deals with T6, IL-6-NT647+gp80 (Homo sapiens, UniProt P05231;P08887, NT647 dye on primary amines of lysine residues (NHS ester)).
T6 construct: interleukin-6 (IL-6), as m8; gp80, as m5; also called mixture of IL-6-NT647 and gp80; source: mixture of 10 nM IL-6NT647 and 20 nM gp80
The test is described as follows: MST; IL-6 or gp80 labelled with NT647, alone (VHH6 titrated up to 20 μM) or mixed with the unlabelled partner (10 nM IL-6NT647 and 20 nM gp80; VHH6 titrated in); Monolith NT.115, red channel. Particulars: both partners purified.

The next test concerns the target T7, gp80-NT647+IL-6 (Homo sapiens, UniProt P08887;P05231, NT647 dye on primary amines of lysine residues (NHS ester)).
T7 construct: gp80, as m9; interleukin-6 (IL-6), as m2; also called mixture of gp80-NT647 and IL-6; source: mixture of labelled gp80 and IL-6
The description is as above. Particulars: both partners purified.

The target of the next test is T8, IL-6-NT647 (UniProt P05231, NT647 dye on primary amines of lysine residues (NHS ester)).
T8 construct: interleukin-6 (IL-6); also called IL-6 labelled with NT647; source: labelled with the Monolith labelling Red NHS kit
The test is described as above. Particulars: both partners purified.

In a further test the target is T9, gp80-NT647 (Homo sapiens, UniProt P08887, NT647 dye on primary amines of lysine residues (NHS ester)).
T9 construct: IL-6 receptor gp80 (CD126); also called gp80 labelled with NT647; source: labelled with the Monolith labelling Red NHS kit
The test is described as above. Particulars: both partners purified.

In another test the target is T10, gp80-hscFc (UniProt P08887).
T10 construct: IL-6 receptor gp80 (CD126); hscFc is not explained in the text
Kind of test: ELISA; IL-6, gp80 or FusionIL-6 coated at 2 μg/mL in carbonate buffer overnight at 4 °C; supernatant from HEK cells or purified VHHs added; anti-llama-HRP or anti-His-HRP; includes the initial screen.

T2 sequence (P05231 28-212, one chain of several): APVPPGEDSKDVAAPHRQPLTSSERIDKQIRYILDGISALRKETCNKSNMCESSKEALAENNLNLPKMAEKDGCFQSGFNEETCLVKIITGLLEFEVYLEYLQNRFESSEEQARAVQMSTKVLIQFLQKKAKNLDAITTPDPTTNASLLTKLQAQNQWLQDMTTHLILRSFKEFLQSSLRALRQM
T7 sequence (P08887 20-468, chain 1 of 2): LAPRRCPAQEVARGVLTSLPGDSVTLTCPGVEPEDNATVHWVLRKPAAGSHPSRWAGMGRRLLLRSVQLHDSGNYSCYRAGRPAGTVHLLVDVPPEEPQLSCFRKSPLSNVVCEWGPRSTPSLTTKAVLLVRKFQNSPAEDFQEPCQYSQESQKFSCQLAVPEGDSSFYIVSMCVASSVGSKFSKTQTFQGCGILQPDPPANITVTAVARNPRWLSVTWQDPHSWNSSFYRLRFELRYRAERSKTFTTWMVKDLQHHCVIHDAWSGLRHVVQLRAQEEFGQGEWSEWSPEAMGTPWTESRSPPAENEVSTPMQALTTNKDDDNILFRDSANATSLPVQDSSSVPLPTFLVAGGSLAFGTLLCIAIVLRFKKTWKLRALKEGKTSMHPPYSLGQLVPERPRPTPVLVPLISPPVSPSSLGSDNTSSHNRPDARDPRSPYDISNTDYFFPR
T7 sequence (P05231 30-212, chain 2 of 2): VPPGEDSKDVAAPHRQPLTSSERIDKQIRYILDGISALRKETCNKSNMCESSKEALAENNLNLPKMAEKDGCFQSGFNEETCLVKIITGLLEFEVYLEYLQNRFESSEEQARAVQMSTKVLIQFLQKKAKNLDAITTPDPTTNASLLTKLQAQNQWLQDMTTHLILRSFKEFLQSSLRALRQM
T9 sequence (P08887 20-468): as the sequence (P08887 20-468, chain 1 of 2) above
T6 sequence (P05231 30-212, chain 1 of 2): as the sequence (P05231 30-212, chain 2 of 2) above
T6 sequence (P08887 20-468, chain 2 of 2): as the sequence (P08887 20-468, chain 1 of 2) above
T8 sequence (P05231 30-212): as the sequence (P05231 30-212, chain 2 of 2) above
T3 sequence (P05231 30-212, chain 1 of 2): as the sequence (P05231 30-212, chain 2 of 2) above
T3 sequence (P08887 20-468, chain 2 of 2): as the sequence (P08887 20-468, chain 1 of 2) above
T10 sequence (P08887 20-365): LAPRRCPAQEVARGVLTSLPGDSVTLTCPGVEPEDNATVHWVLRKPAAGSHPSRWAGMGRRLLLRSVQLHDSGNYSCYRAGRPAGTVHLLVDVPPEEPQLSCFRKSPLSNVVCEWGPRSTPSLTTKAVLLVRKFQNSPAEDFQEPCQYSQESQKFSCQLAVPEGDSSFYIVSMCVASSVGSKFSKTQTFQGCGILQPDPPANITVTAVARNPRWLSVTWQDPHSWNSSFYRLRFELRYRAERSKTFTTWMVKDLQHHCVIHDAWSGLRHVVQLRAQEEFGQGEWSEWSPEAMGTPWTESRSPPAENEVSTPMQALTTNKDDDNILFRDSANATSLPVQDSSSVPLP

B1: gp80V4 (receptor)
chain: GLAPRRCPAQEVARGAGAGDVPPEEPQLSCFRKSPLSNVVCEWGPRSTPSLTTKAVLLVRKFQNSPAEDFQEPCQYSQESQKFSCQLAVPEGDSSFYIVSMCVASSVGSKFSKTQTFQGAGILQPDPPANITVTAVARNPRWLSVTWQDPHSWNSSFYRLRFELRYRAERSKTFTTWMVKDLQHHAVIHDAWSGLRHVVQLRAQEEFGQGEWSEWSPEAMGTPWTESRSPP
modifications: N-glycosylated, high-mannose (Expi-HEK/CHO with kifunensine) for crystallography and HDX-MS. The limits and engineered changes are not given, so they are taken from the deposited 5FUC entity 2: D1 …
One may read the koff as the rate constant with which the complex falls apart. In the test with IL-6, B1 displayed a koff of 0.045 s⁻¹.

B2: VHH6 Y27A mutant (VHH)
VHH: DVQFVESGGGSVHAGGSLRLNCATSGAIYSTYCMGWFRQAPGKEREGVAHIYTNSGRTYYADSVKGRFTISQDNAKNTVYLQMNSLKPEDTAIYYCAARPSIRCASFSATEYKDWGQGTQVTVSS
notes: source: Expi-HEK cells, small scale transient expression, in supernatant; not shown: His6 (TEV-6His), C-terminal, kept
In the case of B2, in test [1], the “fold increase of the dissociation rate against VHH6” value (“fold increase” for short) turned out to be 1.9 fold.

B3: VHH6 double mutant Asn74Ala/Ser101Ala (VHH)
VHH: DVQFVESGGGSVHAGGSLRLNCATSGYIYSTYCMGWFRQAPGKEREGVAHIYTNSGRTYYADSVKGRFTISQDAAKNTVYLQMNSLKPEDTAIYYCAARPAIRCASFSATEYKDWGQGTQVTVSS
notes: also called double mutant 74/101; source: Expi-HEK cells, small scale transient expression, in supernatant; not shown: His6 (TEV-6His), C-terminal, kept
With B3, in [1], the “fold increase” value turned out to be 3.8 fold.

B4: VHH6 (VHH)
VHH: DVQFVESGGGSVHAGGSLRLNCATSGYIYSTYCMGWFRQAPGKEREGVAHIYTNSGRTYYADSVKGRFTISQDNAKNTVYLQMNSLKPEDTAIYYCAARPSIRCASFSATEYKDWGQGTQVTVSS
notes: camelid single domain antibody; The His tag is named on VHH6 for the Octet and the NTA-chip SPR; also called locking antibody; source: Expi-HEK cells, transiently transfected; in supernatant (SPR on the NTA chip) or purified; not shown: His6 (TEV-6His), C-terminal, kept
Take B4: the binding result was “binds” with IL-6 with gp80-hscFc; “binds” in test [2]; “no binding” with gp80; “binds” in the test with IL-6-NT647+gp80; “binds” in the test with gp80-NT647+IL-6; “no binding (tested: up to 20 μM VHH6)” with IL-6-NT647. Further, the binding result with gp80-NT647 was “no binding (tested: up to 20 μM VHH6)”; with gp80-hscFc, “no binding”.

B5: VHH6 double mutant Ser101Ala/Lys113Ala (VHH)
VHH: DVQFVESGGGSVHAGGSLRLNCATSGYIYSTYCMGWFRQAPGKEREGVAHIYTNSGRTYYADSVKGRFTISQDNAKNTVYLQMNSLKPEDTAIYYCAARPAIRCASFSATEYADWGQGTQVTVSS
notes: also called double mutant 113/101; source: Expi-HEK cells, small scale transient expression, in supernatant; not shown: His6 (TEV-6His), C-terminal, kept
For B5, the “fold increase” value in test [1] was found to be 4.3 fold.
